For one substance, Kd results are on record in patent publication US20090208976A1.

The target of the experiment is recombinant rat F1-ATPase β-subunit (purified protein) (rat) (UniProt P10719). As to the kind of experiment: BiaCore surface plasmon resonance, purified F1-ATPase β-subunit.
UniProt P10719, sequence (P10719 47-529): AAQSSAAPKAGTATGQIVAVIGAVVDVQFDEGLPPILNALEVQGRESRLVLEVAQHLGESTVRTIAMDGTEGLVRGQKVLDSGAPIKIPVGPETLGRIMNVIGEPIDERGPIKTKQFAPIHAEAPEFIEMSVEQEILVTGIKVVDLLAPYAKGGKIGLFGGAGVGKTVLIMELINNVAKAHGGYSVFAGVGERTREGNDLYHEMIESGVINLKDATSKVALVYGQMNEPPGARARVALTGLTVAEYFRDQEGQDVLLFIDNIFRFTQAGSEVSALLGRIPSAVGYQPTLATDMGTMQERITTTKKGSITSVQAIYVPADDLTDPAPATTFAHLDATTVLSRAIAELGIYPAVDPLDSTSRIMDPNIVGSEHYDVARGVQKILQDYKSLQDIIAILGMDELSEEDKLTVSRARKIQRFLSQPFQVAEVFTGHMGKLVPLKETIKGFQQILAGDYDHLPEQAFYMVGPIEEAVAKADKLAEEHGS

enterostatin (peptide): the Kd turned out to be 150 nM.
